Measured values published in US20120295975A1 (University of California, published 2012).

Assays:
[1] = biological target: T1, β-arrestin2 (endogenous, RAW 264.7 cells) (mouse, UniProt Q91YI4 1-410); assay: co-IP, RAW 264.7 cells, DHA 30 min (FIG. 3E)
T1 construct: Endogenous protein in cell lysate; also called βarr2
Protocol: (§1) FIG. 3. GPR120 internalization with β-arrestin2 mediates anti-inflammatory effects. (A) RAW 264.7 cells were transfected with siRNA as indicated and stimulated with or without 100 μM of DHA 1 hr prior to LPS (100 ng/ml) treatment for 10 min and then subjected to western blotting. […] (C) Phosphorylation of TAK1 and MKK4 in RAW 264.7 cells with or without siRNA transfection as indicated. (D) HEK 293 cells were co-transfected with HA-GPR120 and β-arrestin2.GFP to analyze GPR120 internalization after DHA stimulation for the indicated times. GPR120 (left column) and β-arrestin2 (middle column) were localized by confocal microscopy. (E) Co-immunoprecipitation between GPR120 and β-arrestin2 with DHA stimulation for 30 min in RAW 264.7 cells and, (F) HEK 293 cells (HA-GPR120 and (β-arrestin2*GFP), respectively. Lysate indicates 1/10 input in each experiment. Interaction between TAB1 and β-arrestin2 (G), and interaction between TAB1 and TAK1 (H) were detected by co-immunoprecipitation and the scanned bar graph quantitates the association in RAW 264.7 cells. (I) Schematic diagram of the β-arrestin2 and GPR120-mediated anti-inflammatory mechanism. The left half of the diagram indicate the DHA-mediated anti-inflammatory effect, and the right half of the diagram indicate the LPS- and TNF-α-induced inflammatory pathway. See also FIG. 9. […]

[2] = biological target: T2, transforming growth factor-β activated kinase 1 (TAK1), endogenous, RAW 264.7 cells (mouse, UniProt Q62073 1-579); assay: co-IP, RAW 264.7 cells (FIG. 3H)
T2 construct: Endogenous protein in cell lysate
T2 sequence (looked up): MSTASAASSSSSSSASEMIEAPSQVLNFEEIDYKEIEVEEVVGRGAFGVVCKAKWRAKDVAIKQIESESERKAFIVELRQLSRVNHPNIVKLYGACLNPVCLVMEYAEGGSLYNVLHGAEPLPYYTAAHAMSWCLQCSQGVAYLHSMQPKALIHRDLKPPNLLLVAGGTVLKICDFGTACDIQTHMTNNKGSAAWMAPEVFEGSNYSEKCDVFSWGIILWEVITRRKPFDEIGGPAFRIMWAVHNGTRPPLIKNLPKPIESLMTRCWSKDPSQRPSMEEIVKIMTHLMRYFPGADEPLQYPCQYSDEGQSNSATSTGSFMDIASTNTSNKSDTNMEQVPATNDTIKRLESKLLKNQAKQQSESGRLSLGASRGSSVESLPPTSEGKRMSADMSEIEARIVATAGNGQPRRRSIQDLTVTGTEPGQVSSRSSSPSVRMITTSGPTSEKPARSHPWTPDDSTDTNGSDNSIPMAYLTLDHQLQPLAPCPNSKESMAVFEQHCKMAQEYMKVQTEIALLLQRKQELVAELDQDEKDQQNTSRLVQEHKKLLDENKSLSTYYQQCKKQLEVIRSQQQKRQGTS
Protocol: as §1

T1 sequence (Q91YI4 whole entry): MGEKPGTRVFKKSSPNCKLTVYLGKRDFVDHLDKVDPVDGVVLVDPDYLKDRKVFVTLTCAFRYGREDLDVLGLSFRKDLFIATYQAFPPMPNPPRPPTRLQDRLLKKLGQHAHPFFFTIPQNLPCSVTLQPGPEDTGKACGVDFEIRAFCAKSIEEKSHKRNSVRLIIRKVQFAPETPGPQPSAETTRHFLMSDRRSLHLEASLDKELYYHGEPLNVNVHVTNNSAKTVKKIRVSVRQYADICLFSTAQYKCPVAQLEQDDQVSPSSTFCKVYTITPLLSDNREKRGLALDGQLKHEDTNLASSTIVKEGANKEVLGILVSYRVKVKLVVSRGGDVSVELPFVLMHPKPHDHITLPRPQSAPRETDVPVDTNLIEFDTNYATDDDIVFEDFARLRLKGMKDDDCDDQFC

B1: GPR120 (endogenous, RAW 264.7 cells) (receptor, mouse, UniProt Q7TMA4 1-361, looked up)
chain: MSPECAQTTGPGPSHTLDQVNRTHFPFFSDVKGDHRLVLSVVETTVLGLIFVVSLLGNVCALVLVARRRRRGATASLVLNLFCADLLFTSAIPLVLVVRWTEAWLLGPVVCHLLFYVMTMSGSVTILTLAAVSLERMVCIVRLRRGLSGPGRRTQAALLAFIWGYSALAALPLCILFRVVPQRLPGGDQEIPICTLDWPNRIGEISWDVFFVTLNFLVPGLVIVISYSKILQITKASRKRLTLSLAYSESHQIRVSQQDYRLFRTLFLLMVSFFIMWSPIIITILLILIQNFRQDLVIWPSLFFWVVAFTFANSALNPILYNMSLFRNEWRKIFCCFFFPEKGAIFTDTSVRRNDLSVISS
notes: whole, on cells; also called ω-3 FA receptor/sensor
binding result [1]: binds

B2: TAK1 binding protein 1 (TAB1), endogenous, RAW 264.7 cells (other, mouse, UniProt Q8CF89 1-502, looked up)
chain: MAAQRRSLLQSEQQPSWTDDLPLCHLSGVGSASNRSYSADGKGTESHPPEDNWLKFRSENNCFLYGVFNGYDGNRVTNFVAQRLSAELLLGQLNTEHTEADVRRVLLQAFDVVERSFLESIDDALAEKASLQSQLPEGVPQHQLPPQYQKILERLKALEREISGGAMAVVAVLLNSKLYVANVGTNRALLCKSTVDGLQVTQLNMDHTTENEDELFRLSQLGLDAGKIKQMGVICGQESTRRIGDYKVKYGYTDIDLLSAAKSKPIIAEPEIHGAQPLDGVTGFLVLMSEGLYKALEAAHGPGQANQEIAAMIDTEFAKQTSLDAVAQAVVDRVKRIHSDTFASGGERAKFCPRHEDMTLLVRNFGYPLGEMSQPTPTPAPGGRVYPVSVPYSSAQSTSKTSVTLSLVMPSQGQMVNGSHSASTLDEATPTLTNQSPTLTLQSTNTHTQSSSSSSDGGLFRSRPAHSLPPGEDGRVEPYVDFAEFYRLWSVDHGEQSVMTAP
notes: Endogenous protein in cell lysate
binding result [2]: binds
